Assay [1] addresses Cdk2/cyclin A complex (T160-phosphorylated full-length human Cdk2 and truncated human cyclin A2, residues 173-432) (human) (UniProt P24941).
Assay [2] shares this target. As to the kind of experiment: ITC.

Four substances from PMC4297576 can be followed below.

peptide corresponding to sub-domain D1C (p21 residues 139-160), sequence (P38936 139-160): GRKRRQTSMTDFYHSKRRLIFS

As for “p21-FL-Y77E (from UniProt P38936 1-164) (natural protein)”, in assay [1], the IC50 of inhibition of Cdk2/cyclin A kinase activity, substrate Histone H1 is 23.4 nM and the IC50 of inhibition of Cdk2/cyclin A kinase activity, substrate Rb-C amounted to 19.9 nM. In assay [1], “p21-KIDC-Y77E (from UniProt P38936 25-164) (domain or fragment)” yielded an IC50 of inhibition of Cdk2/cyclin A kinase activity, substrate Histone H1 of 55.4 nM and an IC50 of inhibition of Cdk2/cyclin A kinase activity, substrate Rb-C of 22.8 nM. For “p21-KIDN-Y77E (from UniProt P38936 9-84) (domain or fragment)”, in that order: 68.1 nM and 46.6 nM. Broadly, the Kd is the constant that tells how readily two partners part at equilibrium. Low readings indicate higher affinity, high ones lower affinity. Consider “peptide corresponding to sub-domain D1C (p21 residues 139-160) (from UniProt P38936 139-160)”, for which the equilibrium dissociation constant (Kd) in assay [2] was determined as 208 nM.
